Assay results reported in patent US20190382498A1.

Target: mutant membrane-bound TNFα on stably transfected CHO cells (B-220 cells) (UniProt P01375)
Test: FACS, anti-CD19 beads with TNFα-transfected CHO cells

UniProt P01375, sequence (P01375 whole entry, change not shown): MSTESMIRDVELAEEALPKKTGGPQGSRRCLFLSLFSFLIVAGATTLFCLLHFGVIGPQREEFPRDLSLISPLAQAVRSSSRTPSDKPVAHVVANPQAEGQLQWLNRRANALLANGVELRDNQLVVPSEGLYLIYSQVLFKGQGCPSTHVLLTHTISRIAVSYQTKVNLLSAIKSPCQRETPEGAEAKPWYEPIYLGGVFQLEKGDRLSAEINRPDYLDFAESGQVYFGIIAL

APC-labeled unrelated antibody (anti-CD19) coated on beads
#Events (CHO cells bound to anti-CD19 beads, gate P4): 6 events | #Events (unbound beads, gate P2): 558 events | % Parent (gate P4): 0.1% | % Total (gate P4): 0.1%
